Experimental data reported in IntAct's records for PubMed 23624502.

B1: Ras-related protein Rab-39B (Mus musculus), Q8BHC1 (parent)
chain: MEAIWLYQFRLIVIGDSTVGKSCLIRRFTEGRFAQVSDPTVGVDFFSRLVEIEPGKRIKLQIWDTAGQERFRSITRAYYRNSVGGLLLFDITNRRSFQNVHEWLEETKVHVQPYQIVFVLVGHKCDLDTQRQVTRHEAEKLAAAYGMKYIETSARDAINVEKAFTDLTRDIYELVKRGEITIQEGWEGVKSGFVPNVVHSSEEVIKSERRCLC
partner: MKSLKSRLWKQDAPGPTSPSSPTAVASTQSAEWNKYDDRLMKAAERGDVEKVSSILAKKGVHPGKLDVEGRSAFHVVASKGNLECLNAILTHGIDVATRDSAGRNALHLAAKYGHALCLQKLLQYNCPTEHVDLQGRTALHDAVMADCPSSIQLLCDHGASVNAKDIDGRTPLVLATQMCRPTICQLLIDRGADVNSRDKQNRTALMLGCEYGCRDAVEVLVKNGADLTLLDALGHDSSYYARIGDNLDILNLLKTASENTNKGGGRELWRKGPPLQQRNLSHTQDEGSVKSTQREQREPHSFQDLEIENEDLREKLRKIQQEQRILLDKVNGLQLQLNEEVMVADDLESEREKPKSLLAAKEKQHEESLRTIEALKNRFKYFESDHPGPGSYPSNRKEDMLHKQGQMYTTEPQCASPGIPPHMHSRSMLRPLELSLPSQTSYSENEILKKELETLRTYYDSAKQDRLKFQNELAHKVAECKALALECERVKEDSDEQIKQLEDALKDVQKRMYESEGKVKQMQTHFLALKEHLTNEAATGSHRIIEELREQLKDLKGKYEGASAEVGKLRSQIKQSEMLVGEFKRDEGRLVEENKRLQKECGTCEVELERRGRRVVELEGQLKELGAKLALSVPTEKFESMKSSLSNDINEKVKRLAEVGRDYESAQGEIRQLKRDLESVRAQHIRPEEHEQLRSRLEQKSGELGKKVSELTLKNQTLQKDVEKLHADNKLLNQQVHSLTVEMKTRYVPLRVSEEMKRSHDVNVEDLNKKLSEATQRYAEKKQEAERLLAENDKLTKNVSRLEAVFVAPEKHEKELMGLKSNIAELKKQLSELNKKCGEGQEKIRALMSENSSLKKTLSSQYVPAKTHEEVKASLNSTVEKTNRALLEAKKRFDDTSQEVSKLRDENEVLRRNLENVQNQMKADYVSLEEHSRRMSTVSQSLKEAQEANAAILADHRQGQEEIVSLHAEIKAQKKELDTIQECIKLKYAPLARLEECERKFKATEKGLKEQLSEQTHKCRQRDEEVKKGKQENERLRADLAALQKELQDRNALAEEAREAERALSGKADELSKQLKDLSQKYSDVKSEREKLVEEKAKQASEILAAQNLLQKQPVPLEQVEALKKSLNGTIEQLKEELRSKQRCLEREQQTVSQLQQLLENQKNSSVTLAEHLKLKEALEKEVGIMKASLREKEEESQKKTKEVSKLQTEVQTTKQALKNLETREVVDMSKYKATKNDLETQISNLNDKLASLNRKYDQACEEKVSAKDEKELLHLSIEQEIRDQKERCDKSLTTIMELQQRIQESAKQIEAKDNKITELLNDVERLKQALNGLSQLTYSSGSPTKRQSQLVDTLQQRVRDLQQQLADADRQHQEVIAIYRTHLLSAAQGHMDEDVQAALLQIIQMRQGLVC
B2: Ras-related protein Rab-39A (Mus musculus), Q8BHD0 (parent)
chain: METIWIYQFRLIVIGDSTVGKSCLLHRFTQGRFPGLHSPACDPTVGVDFFSRLLEIEPGKRIKLQLWDTAGQERFRSITRSYYRNSVGGFLVFDITNRRSFEHVKDWLEEAKMHVQPFQIVFLLVGHKCDLASQRQVSREEAERLSTDCGMKYIETSAKDATNVEESFTILTRDIYELIKKGEICIQDGWEGVKSGFVPNTVHSSEEAVKPRKECFC
partner: B1 partner

Legend:
Conditions in all cases: with Uaca
Uaca, Q8CGB3-3 [1] = variants of: B1
Uaca, Q8CGB3-3 [2] = variants of: B1; remark: listed apart in the source
Uaca, Q8CGB3-3 [3] = variants of: B2; remark: listed apart in the source
Uaca, Q8CGB3-3 [4] = variants of: B2; remark: listed apart in the source

| Variant | effect of a mutation on the interaction (Uaca, Q8CGB3-3 [1]) | effect of a mutation on the interaction (Uaca, Q8CGB3-3 [2]) | effect of a mutation on the interaction (Uaca, Q8CGB3-3 [3]) | effect of a mutation on the interaction (Uaca, Q8CGB3-3 [4]) |
| --- | --- | --- | --- | --- |
| MEAIWLYQFRLIVIGDSTVGKNCLIRRFTEGRFAQVSDPTVGVDFFSRLVEIEPGKRIKLQIWDTAGQERFRSITRAYYRNSVGGLLLFDITNRRSFQNVHEWLEETKVHVQPYQIVFVLVGHKCDLDTQRQVTRHEAEKLAAAYGMKYIETSARDAINVEKAFTDLTRDIYELVKRGEITIQEGWEGVKSGFVPNVVHSSEEVIKSERRCLC [S22N] | disrupting interaction | decreasing interaction | – | – |
| METIWIYQFRLIVIGDSTVGKNCLLHRFTQGRFPGLHSPACDPTVGVDFFSRLLEIEPGKRIKLQLWDTAGQERFRSITRSYYRNSVGGFLVFDITNRRSFEHVKDWLEEAKMHVQPFQIVFLLVGHKCDLASQRQVSREEAERLSTDCGMKYIETSAKDATNVEESFTILTRDIYELIKKGEICIQDGWEGVKSGFVPNTVHSSEEAVKPRKECFC [S22N] | – | – | disrupting interaction | decreasing interaction |
